Reference: patent publication US20260207704A1, “STAPLED PEPTIDES AND METHODS THEREOF” (priority 2022, published 2026)
*1 amine or outer side, *2 acyl side, *3 side chain or, on linkers, in order; H or OH if unused. Bridges are numbered along the chain shown (N, C = ends). Primed or numbered codes have the meaning given here. [ ]: non-standard residue; d: D form. PyrS2(6) = (S)-3-amino-1-((pent-4-en-1-yloxy)carbonyl)pyrrolidine-3-carboxylic acid, stapled with another olefin-containing amino acid residue through the olefin group, O=C(OCCCC=[*:3])N1CC[C@@](N[*:1])(C(=O)[*:2])C1; B5(4) = 2-amino-2-(pent-4-en-1-yl)hept-6-enoic acid, stapled through each of its two olefin groups with other olefin-containing amino acid residues, O=C(C(CCCC=[*:3])(CCCC=[*:4])N[*:1])[*:2]; PyrS2″ = (S)-3-amino-1-((pent-4-en-1-yloxy)carbonyl)pyrrolidine-3-carboxylic acid (olefin stapling residue), C=CCCCOC(=O)N1CC[C@@](N[*:1])(C(=O)[*:2])C1; PyrS2(3) = (S)-3-amino-1-((pent-4-en-1-yloxy)carbonyl)pyrrolidine-3-carboxylic acid, olefin residue, C=CCCCOC(=O)N1CC[C@@](N[*:1])(C(=O)[*:2])C1; TriAzLys = (S)-2-amino-5-(1H-1,2,3-triazol-1-yl)pentanoic acid, stapled through triazole 4-position, O=C([C@H](CCCn1cc([*:3])nn1)N[*:1])[*:2]; PyrS2(5) = (S)-3-amino-1-((pent-4-en-1-yloxy)carbonyl)pyrrolidine-3-carboxylic acid, C=CCCCOC(=O)N1CC[C@@](N[*:1])(C(=O)[*:2])C1; B5″ = 2-amino-2-(pent-4-en-1-yl)hept-6-enoic acid (bis-olefin stapling residue), C=CCCCC(CCCC=C)(N[*:1])C(=O)[*:2]; B5(3) = 2-amino-2-(pent-4-en-1-yl)hept-6-enoic acid, two olefin arms, C=CCCCC(CCCC=C)(N[*:1])C(=O)[*:2]; TriAzLys″ = azidolysine residue closed into triazole staple, O=C([C@H](CCCCn1cc([*:3])nn1)N[*:1])[*:2]; Phe(3-COOH) = N[C@@H](Cc1cccc(C(=O)O)c1)C(=O)O; 2F3MeF = Cc1cccc(C[C@H](N[*:1])C(=O)[*:2])c1F; Abu(4-yl) = O=C([C@H](CC[*:3])N[*:1])[*:2]; Bta = N[C@@H](Cc1csc2ccccc12)C(=O)O; αAllylPro = C=CC[C@@]1(C(=O)O)CCCN1; tBuAla = CC(C)(C)C[C@H](N)C(=O)O; 3Thi = N[C@@H](Cc1ccsc1)C(=O)O; TriAzLys(3) = not defined here; PyrS2(4) = not defined here; 2F3MeF(4) = Phe analogue; dGlnR = not defined here; GlnR = not defined here; sAla = not defined here; PL3 = not defined here; B5 = not defined here

B1: I-7 (peptide)
peptide: Ac-[αAllylPro]DL[B5(3)]DDKAF[GlnR][PyrS2(3)][3Thi][Bta]Q-NH2
modifications: bridge 7-10; not fully specified (bridges); printed as Ac-PL3-Asp-Leu-B5-Asp-Asp-Lys*3-Ala-Phe-GlnR*3-PyrS2-3Thi-BztA-Gln-NH2; reading uncertain
B2: I-8 (peptide)
peptide: XDLXDDQAFKXXXQ
modifications: not fully specified; Ac-PL3-Asp-Leu-B5-Asp-Asp-GlnR*3-Ala-Phe-Lys*3-PyrS2-3Thi-BztA-Gln-NH2
B3: I-10 (peptide)
peptide: Ac-[PL3]DL[B5]D[Phe(3-COOH)]AAFK[PyrS2(4)][3Thi][Bta][GlnR]-NH2
modifications: staple 1-4; bridge 10-14; not fully specified (residue 10); printed as Ac-PL3-Asp-Leu-B5-Asp-3COOHF-Ala-Ala-Phe-dLys*3-PyrS2-3Thi-BztA-GlnR*3-NH2; reading uncertain; also: PyrS2 tied into a staple, partner not placed
B4: I-11 (peptide)
peptide: Ac-[PL3]DL[B5]D[Phe(3-COOH)]AAFK[PyrS2(4)][3Thi][Bta][GlnR]-NH2
modifications: staple 1-4; bridge 10-14; reading uncertain; also: PyrS2 tied into a staple, partner not placed, printed as Ac-PL3-Asp-Leu-B5-Asp-3COOHF-Ala-Ala-Phe-Lys*3-PyrS2-3Thi-BztA-GlnR*3-NH2
B5: I-12 (peptide)
peptide: Ac-[αAllylPro]DL[B5″]D[Phe(3-COOH)]AAFK[PyrS2″][3Thi][Bta][GlnR]-NH2
modifications: bridge 10-14; not fully specified (bridges); printed as Ac-PL3-Asp-Leu-B5-Asp-3COOHF-Ala-Ala-Phe-Lys*3-PyrS2-3Thi-BztA-GlnR*3-NH2; reading uncertain; also: Lys*3 and GlnR*3 marked *3
B6: I-13 (peptide)
peptide: Ac-[αAllylPro]DL[B5(4)]D[Phe(3-COOH)]AAF[dGlnR][PyrS2″][3Thi][Bta]K-NH2
modifications: bridge 10-14; not fully specified (bridges); printed as Ac-PL3-Asp-Leu-B5-Asp-3COOHF-Ala-Ala-Phe-DGlnR*3-PyrS2-3Thi-BztA-Lys*3-NH2; reading uncertain; also: DGlnR*3 and Lys*3 marked *3
B7: I-14 (peptide)
peptide: Ac-[αAllylPro]DL[B5(4)]D[Phe(3-COOH)]AAF[dGlnR][PyrS2(5)][3Thi][Bta]K-NH2
modifications: bridge 10-14; not fully specified (bridges); printed as Ac-PL3-Asp-Leu-B5-Asp-3COOHF-Ala-Ala-Phe-DGlnR*3-PyrS2-3Thi-BztA-Lys*3-NH2; reading uncertain; also: DGlnR10 and Lys14 marked *3
B8: I-15 (peptide)
peptide: Ac-[αAllylPro]DL[B5″]D[Phe(3-COOH)]AAF[GlnR][PyrS2″][3Thi][Bta]K-NH2
modifications: bridge 10-14; reading uncertain; also: PL3-B5 and PyrS2 links not placed, printed as Ac-PL3-Asp-Leu-B5-Asp-3COOHF-Ala-Ala-Phe-GlnR*3-PyrS2-3Thi-BztA-Lys*3-NH2
B9: I-16 (peptide)
peptide: Ac-[αAllylPro]DL[B5″]D[Phe(3-COOH)]AAF[GlnR][PyrS2″][3Thi][Bta]K-NH2
modifications: bridge 10-14; reading uncertain; also: PL3-B5 and PyrS2 links not placed, printed as Ac-PL3-Asp-Leu-B5-Asp-3COOHF-Ala-Ala-Phe-GlnR*3-PyrS2-3Thi-BztA-Lys*3-NH2
B10: I-19 (peptide)
peptide: Ac-[PL3]D[tBuAla][B5(4)]D[Phe(3-COOH)]AAF[TriAzLys″][PyrS2″][3Thi][Bta][sAla]-NH2
modifications: triazole 10-14; not fully specified (bridges); printed as Ac-PL3-Asp-Npg-B5-Asp-3COOHF-Ala-Ala-Phe-TriAzLys*3-PyrS2-3Thi-BztA-sAla*3-NH2; reading uncertain
B11: I-21 (peptide)
peptide: Ac-[PL3]D[tBuAla][B5(4)]D[Phe(3-COOH)]AAF[TriAzLys″][PyrS2″][2F3MeF][Bta][sAla]-NH2
modifications: triazole 10-14; not fully specified (bridges); printed as Ac-PL3-Asp-Npg-B5-Asp-3COOHF-Ala-Ala-Phe-TriAzLys*3-PyrS2-2F3MeF-BztA-sAla*3-NH2; reading uncertain
B12: I-23 (peptide)
peptide: Ac-[PL3]D[tBuAla][B5(4)]DDAAF[sAla][PyrS2″][3Thi][Bta][TriAzLys″]-NH2
modifications: triazole 10-14; not fully specified (bridges); printed as Ac-PL3-Asp-Npg-B5-Asp-Asp-Ala-Ala-Phe-sAla*3-PyrS2-3Thi-BztA-TriAzLys*3-NH2; reading uncertain
B13: I-24 (peptide)
peptide: Ac-[αAllylPro]D[tBuAla][B5(4)]D[Phe(3-COOH)]AAF[sAla][PyrS2(6)][3Thi][Bta][TriAzLys(3)]-NH2
modifications: triazole 10-14; not fully specified (bridges); printed as Ac-PL3-Asp-Npg-B5-Asp-3COOHF-Ala-Ala-Phe-sAla*3-PyrS2-3Thi-BztA-TriAzLys*3-NH2; reading uncertain
B14: I-25 (peptide)
peptide: Ac-[αAllylPro]D[tBuAla][B5(4)]D[Phe(3-COOH)]AAF[sAla][PyrS2(6)][2F3MeF(4)][Bta][TriAzLys(3)]-NH2
modifications: triazole 10-14; not fully specified (bridges); printed as Ac-PL3-Asp-Npg-B5-Asp-3COOHF-Ala-Ala-Phe-sAla*3-PyrS2-2F3MeF-BztA-TriAzLys*3-NH2; reading uncertain

Each binder was assayed against beta-catenin (human) (assay: cell-based or functional assay).
beta-catenin (human), sequence (B6V8E6 146-665 limits assumed): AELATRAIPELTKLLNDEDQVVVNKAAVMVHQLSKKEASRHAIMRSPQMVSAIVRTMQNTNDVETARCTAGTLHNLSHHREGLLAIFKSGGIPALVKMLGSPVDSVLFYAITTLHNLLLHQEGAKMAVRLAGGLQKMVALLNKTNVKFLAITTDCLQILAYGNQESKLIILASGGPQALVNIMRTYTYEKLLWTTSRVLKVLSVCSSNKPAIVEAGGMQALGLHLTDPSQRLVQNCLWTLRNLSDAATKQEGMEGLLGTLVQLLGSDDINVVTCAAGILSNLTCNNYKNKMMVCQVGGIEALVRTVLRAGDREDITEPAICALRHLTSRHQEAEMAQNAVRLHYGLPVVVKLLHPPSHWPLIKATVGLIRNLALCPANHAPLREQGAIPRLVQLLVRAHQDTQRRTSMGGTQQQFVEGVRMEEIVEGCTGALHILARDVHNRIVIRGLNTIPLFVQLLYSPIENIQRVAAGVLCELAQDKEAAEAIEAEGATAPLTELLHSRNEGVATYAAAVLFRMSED

Row | Binder | NanoBRET Abs IC50 [nM] | NanoBRET Abs IC50 (bin >1.5 uM) [nM] | NanoBRET Abs IC50 (bin >3.0 uM) [nM]
1 | B1 | > 10000 |  | 
2 | B2 | > 10000 |  | 
3 | B3 | > 10000 |  | 
4 | B4 |  | < 3000 | 
5 | B5 |  |  | < 10000
6 | B6 |  |  | < 10000
7 | B7 |  |  | < 10000
8 | B8 |  | < 3000 | 
9 | B9 |  |  | < 10000
10 | Ac-[αAllylPro]D[tBuAla][B5″]DDAAF[TriAzLys][PyrS2″][3Thi][Bta][Abu(4-yl)]-NH2 (triazole 10-14; also: PL3-B5 and PyrS2 links not placed) [I-17] | > 10000 |  | 
11 | B10 |  |  | < 10000
12 | B11 |  | < 3000 | 
13 | B12 |  |  | < 10000
14 | B13 |  |  | < 10000
15 | B14 |  |  | < 10000

Each binder was assayed against beta-catenin (human) (assay: fluorescence polarization).

Row | Binder | IC50 [nM]
16 | B1 | < 50
17 | B2 | < 50
18 | B3 | < 50
19 | B4 | < 50
20 | B5 | < 50
21 | B6 | < 50
22 | B7 | < 50
23 | B8 | < 50
24 | B9 | < 50
25 | Ac-[αAllylPro]D[tBuAla][B5″]DDAAF[TriAzLys][PyrS2″][3Thi][Bta][Abu(4-yl)]-NH2 (triazole 10-14; also: PL3-B5 and PyrS2 links not placed) [I-17] | < 50
26 | B10 | < 50
27 | B11 | < 50
28 | B12 | < 50
29 | B13 | < 50
30 | B14 | < 50
